This is an account of results in patent US20260201058A1.

Assay [1] deals with monkey PD-L1 (Cyno-PD-L1) on cells (monkey (cyno)). The assay can be described thus: flow cytometry on 293F-cyno PD-L1 cells.
Assay [2] has as its target human PD-L1 on GS-C2 cells (cells overexpressing human PD-L1, GenScript, M00613) (human) (UniProt Q9NZQ7). As to the kind of experiment: cell-based or functional assay.
The target is the same in assay [3]. The assay can be described thus: flow cytometry on GS-C2 cells. (In general: A flow cytometer gives signals particle by particle.)

Chain of human PD-L1 on GS-C2 cells (cells overexpressing human PD-L1, GenScript, M00613) (human) (Q9NZQ7 19-290): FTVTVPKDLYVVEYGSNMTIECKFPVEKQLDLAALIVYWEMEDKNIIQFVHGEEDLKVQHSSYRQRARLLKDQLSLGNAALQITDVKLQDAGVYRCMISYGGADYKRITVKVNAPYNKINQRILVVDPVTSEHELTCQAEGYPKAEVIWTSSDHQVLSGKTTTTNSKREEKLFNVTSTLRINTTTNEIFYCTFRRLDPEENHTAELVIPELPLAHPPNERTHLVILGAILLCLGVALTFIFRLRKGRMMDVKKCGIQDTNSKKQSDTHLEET

As usually defined, the EC50 is the concentration needed to bring the measured effect to its halfway point. On to “control antibody Benchmark-ATE (monoclonal antibody, Atezolizumab)”, for which the EC50 amounted to 1.34 nM in assay [1] and 0.694 nM in assay [3]. This substance showed an EC50 (nM), blocking of T cell PD-1/PD-L1 signaling pathway (GS-C2 cells with Jurket-NFAT-PD1 cells, luciferase) in assay [2] of 2.38 nM.
